Data from article PMC5127646.

biological target: RBM5 OCRE domain (residues 451-511), wild type (human) (UniProt P52756); assay: ITC; Sm tail constructs with wild type OCRE; SmN constructs (1 mM) titrated into OCRE (100 μM); ITC200, 24°C, 20 mM sodium phosphate pH 6.5, 50 mM NaCl; duplicates
Sequence (P52756 other isoform, or with tags, fused parts or gaps): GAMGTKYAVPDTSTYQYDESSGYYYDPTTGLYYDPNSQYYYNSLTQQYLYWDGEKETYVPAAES

In order of falling Kd:
1. SmB 167-231 R1/R2→E1/E2 (from UniProt P14678-2 167-231) (domain or fragment)  159 µM
2. SmN 167-240 R1/R2→E1/E2 (from UniProt P63162 167-240) (domain or fragment)  150 µM
3. SmN 167-240 R2→E2 (from UniProt P63162 167-240) (domain or fragment)  74 µM
4. SmN 167-240 R1→E1 (from UniProt P63162 167-240) (domain or fragment)  66.5 µM
5. SmB 167-231 4P→4A (from UniProt P14678-2 167-231) (domain or fragment)  20 µM
